Measurements published in patent US20130316910A1 (UNIVERSITY OF TOKYO, published 2013).

The binders below were run against T1, Bcl-2 protein having His tag on the C terminal side (UniProt P10415 1-211, limits assumed) (assay: SPR, His-tagged Bcl-2 immobilised on Ni substrate, peptide in solution).
T1 construct: Immobilised through its His tag on a Ni-loaded SPR substrate; not shown: C-terminal His tag
Description: Next, a crosslinked peptide having the amino acid sequence as shown in the above table was synthesized by using a Fmoc solid-phase method and its binding ability was evaluated by calculating a dissociation constant (KD) in accordance with an evaluation method using SPR (Surface Plasmon Resonance).
Described specifically, first, a solution containing NiCl₂ was applied on a substrate to which Ni could be bound and then Bcl-2 protein having His tag on the C terminal side thereof was applied to immobilize the protein on the substrate. Then, a solution containing a solid-phase synthesized peptide was added successively while appropriately changing the concentration. During addition, a change in refractive index depending on the weight on the substrate was read and bond strength was evaluated based on the binding rate and dissociation rate of the peptide calculated.

T1 sequence (P10415 1-211 limits assumed): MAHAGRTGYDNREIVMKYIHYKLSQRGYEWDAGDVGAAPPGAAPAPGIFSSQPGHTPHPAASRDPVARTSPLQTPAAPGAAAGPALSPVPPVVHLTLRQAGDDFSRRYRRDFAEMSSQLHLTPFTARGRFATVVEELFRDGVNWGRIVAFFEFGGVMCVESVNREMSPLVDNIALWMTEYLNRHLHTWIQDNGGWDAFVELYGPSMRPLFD

Kd [nM]	Binder
~14	Ac-FFNRHNNAYYTAGYAALGRLYRLL-NH2 [A-4A]
0.58	Ac-FIIARFSALADSYDASRHIF-NH2 [A-5A]
15	Ac-FPHATIAARADSYDSYVRLAATFL-NH2 (by the library design Ala stands where the special amino acid and Cys would be) [A-1A]
3.6	Ac-FPHATIAARADSYDSYVRLVATFR-NH2 [A-2A]
